# B1: DGL584 (bispecific antibody, V domains shown)
# V domain 1: QVQLQESGGGLVQAGGSLRLSCAASGSIASINAMGWYRQAPGKQRDFVARIQLSGSTNYAHSVRGRFTISRDNAKNTVYLQMNNLKPEDTAVYVCAASNTGSLYGLRNYWGQGTQVTVEP
# V domain 2: QVQLVESGGGLVQPGGSLRLSCAASGFTFSSKAMHWFRQAPGKGLEWVSSINSGGAITYYKDSVKGRFTVSRDNAKNILYLEMNSLKPEDTALYYCATDTDGRTRGQGTQVTVEP
# B2: DGL524 (bispecific antibody, V domains shown)
# V domain 1: EVQLVESGGGLVQPGGSLRLFCAASRSIFNINIMGWYRQAPGKQREWLASITSGGSTFYADSVKDRFTISRDSVKNTVYLQMNSLKPEDTAAYYCNRYRSVPLNTVYPWGQGTLVTVEP
# V domain 2: QVQLVESGGGLVQAGGSLRLSCAASGRIFSAYRMGWFRQAPGKEREFVAGITWRGQTTYYAASVKGRFTISKDNAKKTVYLQMNSLKPEETAVYYCAVETNGLGRWDRPSEYDYWGQGTQVTVEP
# B3: DGL537 (bispecific antibody, V domains shown)
# V domain 1: QVQLVESGGGLVQAGGSLRLSCLASGRTSNYFMGWFRQAPGKEREFVAAISRSGGGTWYADSVKGRFAISRDNAKNTVNLQMNSLKREDTAVYYCAADRRTGTSVYTVDEYDYWGQGTQVTVEP
# V domain 2: B2 V domain 2
# B4: DGL462 (bispecific antibody, V domains shown)
# V domain 1: EVQLVESGGGLVQPGGSLRLSCAASGFTFQNYAMSWLRKAPGEGLEWVSVINSGGGSTLYADSVKGRFTISRDNAKNTLYLQMHSLKSEDTAVYFCAKRRDDSTFGSLLYTHRGQGTQVTVEP
# V domain 2: B2 V domain 2
# B5: DGL599 (bispecific antibody, human IgG1, V domains shown)
# V domain 1: EVQLVESGGGLVQAGGSLRLSCAASGSKFSFNAMGWYRQTPGKQRELVAIIINGDMINYADSVKGRFTISRDNAKNTMYLQMNSLKPEDTAVYYCKMTRYVYDYWGQGTQVTVEP
# V domain 2: QVQLVQSGAEVKKPGASVRVSCKASGYTFTSYYIHWVRQAPGQGLEWMGIINPSGGSTSYAQKFQGRVTMTRDTSTTTVYMELSSLRSEDTAVYYCAKSNWAYAFDIWGQGTMVTVSS
# B6: DGL499 (bispecific antibody, V domains shown)
# V domain 1: EVQLVESGGGLVQAGGSLRLSCAASGLTFRNYAMAWFRQAPGKEREFVAGITWGGGLTHYVDSVKGRFTISRDNGKNTVYLQMNSLKSEDTAVYYCAGKTQGSTWYHLTPDGYDYWGQGTQVTVEP
# V domain 2: QVQLVESGGGLVQPGGSLRLSCAASGFTFEPYDMSWFRQAPGKGPEWVSAIDKGGGAGATYYADSVKGRFTISRDNAKKTLYLQMKSLKPEDTAVYYCAITAGPYSDSTPRVAYRGEGTQVTVEP
# B7: DGL484 (bispecific antibody, V domains shown)
# V domain 1: QVQLVESGGGLVQAGGSLRLSCAASARIFNSYAVAWFRQTPGKEREFVASISWSGGSTNYADSVKGRFTISRDNAKNTVFLQMNSLKPADTAVYYCAADRNYYPSVLGKYTYWGQGTQVTVEP
# V domain 2: B6 V domain 2
# B8: DGL454 (bispecific antibody, V domains shown)
# V domain 1: QVQLQESGGALVQPGGSLRLSCVVSGFTSDYFAIGWFRQAPGKEREGVSCIGSSDGSTIYSDSVKGRFTISRDNAKNTVYLQMNSLKPEDTGVYYCALDRGRRTIIGYACYATMKYWGKGTPVTVEP
# V domain 2: B6 V domain 2
# B9: DGL464 (bispecific antibody, V domains shown)
# V domain 1: QVQLVESGGGLVQAGGSLRLSCAASGRAFSRYSMGWFRQAPGKEREFVAANYWSNGWTDYADTVKGRFSISRDNAKNTVYLQMNSLKPEDTAVYYCAGRSSSIPSADVVGYDYWGQGTQVTVEP
# V domain 2: QVQLVESGGGLVQPGGSLRLSCAASGFTFSNYAMSWVRQAPGKGLEWVSAINSDGTSTSYADSVKGQFTISRDNAKNTLYLQMNSLKPEDTAVYYCTKWEGDTDSDYKFKDYWGQGTQVTVEP
# B10: DGL527 (bispecific antibody, V domains shown)
# V domain 1: EVQLVESGGGLVQPGGSLTLSCTASGFRFSDRSMGWYRQAPGKQRELVAAITVGGSTNYADSVKGRFTISRDNAKNTVYLQMNSLKPEDTALYYCNRRYPPDDYWGQGTQVTVEP
# V domain 2: QVQLVESGGGLVRPGGSLRLSCAASGFTFSSNGMHWFRQAPGKGLEWVSSIGSGGTSIYYADSVKGRFTISRDNAKNTLYLQMNSLKSDDTAVYYCSKEVTGATRGQGTQVTVEP
# B11: DGL441 (bispecific antibody, human IgG1, lambda)
# heavy 1: not shown
# heavy 2: EVQLVESGGGLVQPGGSLRLSCAASGFTFSTYDMHWVRQATGKGLEWVSLIDTAGDTYYPDSVKGRFTISRENAKNSLYLQMNSLRAGDTAVYYCAREGWGYFDYWGQGALVTVSSASTKGPSVFPLAPSSKSTSGGTAALGCLVKDYFPEPVTVSWNSGALTSGVHTFPAVLQSSGLYSLSSVVTVPSSSLGTQTYICNVNHKPSNTKVDKKVEPKSCDKTHTCPPCPAPEAAGAPSVFLFPPKPKDTLMISRTPEVTCVVVDVSHEDPEVKFNWYVDGVEVHNAKTKPREEQYNSTYRVVSVLTVLHQDWLNGKEYKCKVSNKALPAPIEKTISKAKGQPREPQVCTLPPSRDELTKNQVSLSCAVKGFYPSDIAVEWESNGQPENNYKTTPPVLDSDGSFFLVSKLTVDKSRWQQGNVFSCSVMHEALHNRFTQKSLSLSPG
# light: QSALTQPPSVSGSPGQSVTISCTGTSSDVGSYNRVSWYQQPPGTAPKLMIYEVSNRPSGVPDRFSGSKSGNTASLTISGLQAEDEADYYCSLYTGSSTVVFGGGTKVTVLGQPKAAPSVTLFPPSSEELQANKATLVCLISDFYPGAVTVAWKADSSPVKAGVETTTPSKQSNNKYAASSYLSLTPEQWKSHRSYSCQVTHEGSTVEKTVAPTECS
# B12: DGL575 (bispecific antibody, V domains shown)
# V domain 1: QVQLVESGGGLVQAGGSLRLSCAASRSISSFNEMAWYRQAPGEQRELVATIVSTVGFTNYADSVKGRFTISRDNAKNTVYLQMNSLKAEDTAVYYCNARRISTDYWGQGTQVTVEP
# V domain 2: QVQLQESGPGLVKPSQTLSLTCTVSGGSITTNYYYWSWIRQPPGKGLEWMGAIAYSGSTYYSPSLKSRTSISRDTSKNQFTLQLSSVTPEDTAVYYCASGINFYSNYPTLNEYDYWGQGTQVTVEP
# Molecular target: human IL-12 receptor (IL-12Rβ1 and IL-12Rβ2) on HEK-Blue IL-12 cells (human, UniProt P42701 24-662; Q99665 24-862)
# Sequence (Q99665 24-862, chain 2 of 2, other chains not shown): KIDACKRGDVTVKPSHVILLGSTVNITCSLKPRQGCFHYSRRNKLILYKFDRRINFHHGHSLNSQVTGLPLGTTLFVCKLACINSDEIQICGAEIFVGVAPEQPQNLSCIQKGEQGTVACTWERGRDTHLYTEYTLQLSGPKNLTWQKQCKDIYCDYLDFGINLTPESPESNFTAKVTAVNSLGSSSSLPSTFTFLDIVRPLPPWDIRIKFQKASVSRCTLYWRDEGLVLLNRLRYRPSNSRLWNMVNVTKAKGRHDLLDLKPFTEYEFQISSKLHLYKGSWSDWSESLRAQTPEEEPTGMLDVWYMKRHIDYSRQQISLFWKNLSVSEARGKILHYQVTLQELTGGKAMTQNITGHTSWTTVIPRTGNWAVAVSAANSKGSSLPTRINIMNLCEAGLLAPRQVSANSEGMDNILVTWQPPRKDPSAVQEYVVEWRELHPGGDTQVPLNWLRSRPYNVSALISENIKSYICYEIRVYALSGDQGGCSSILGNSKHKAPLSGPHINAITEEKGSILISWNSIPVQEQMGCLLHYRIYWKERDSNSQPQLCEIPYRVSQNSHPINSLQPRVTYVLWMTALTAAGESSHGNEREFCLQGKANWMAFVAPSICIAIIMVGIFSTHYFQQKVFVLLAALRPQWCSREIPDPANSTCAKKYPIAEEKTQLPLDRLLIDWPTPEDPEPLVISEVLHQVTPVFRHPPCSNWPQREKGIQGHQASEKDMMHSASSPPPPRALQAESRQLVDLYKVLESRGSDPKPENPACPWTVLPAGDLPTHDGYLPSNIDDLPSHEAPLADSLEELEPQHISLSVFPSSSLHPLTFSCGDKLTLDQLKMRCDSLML
# Test: cell-based or functional assay
EC50,Max Absorbance,Binder
> 100 nM,0.58,B1
4.4e-10 M (implied),0.58,B2
5.9e-10 M (implied),0.55,B3
1.2e-09 M (implied),0.52,B4
> 100 nM,0.48,B5
8.1e-09 M (implied),0.56,B6
9.7e-09 M (implied),0.54,B7
> 100 nM,0.47,B8
> 100 nM,0.47,B9
> 100 nM,0.54,B10
4e-11 M (implied),0.45,B11
> 100 nM,0.43,B12
